In patent publication US20250197484A1 (ECO ANIMAL HEALTH, published 2025):
Like-named read-outs stand apart in the source and are kept apart here.

What was measured:
[1] = biological target: T1, Clostridium perfringens NetB toxin (necrotic enteritis B-like toxin) (Clostridium perfringens); assay: cell-based or functional assay
[2] = biological target: T1, Clostridium perfringens NetB toxin …
[3] = biological target: T1, Clostridium perfringens NetB toxin …; assay: SPR (Biacore 8K+), single cycle kinetics, NetB toxin immobilised, pH 7.4
[4] = biological target: T1, Clostridium perfringens NetB toxin …; assay: cell-based or functional assay; remark: listed apart in the source
[5] = biological target: T1, Clostridium perfringens NetB toxin …; remark: listed apart in the source

Row | Binder | IC50 of NetB-induced RBC lysis inhibition after incubation in water, Day 0 [1] | IC50 of NetB-induced RBC lysis inhibition after incubation in water, Day 1 [1] | IC50 of NetB-induced RBC lysis inhibition after incubation in water, Day 4 [1] | EC50 (read off the curve) [2] | Kd [3] | koff [3] | kon [3] | IC50, inhibition of NetB-induced RBC lysis, 0 min incubation with 30 U/ml pepsin [4] | EC50 (read off the curve) [5]
1 | Net_14 (VHH) VHH: QVQLVESGGGLVQAGGSVRLSCVASGLTFSGYSLGWFRQAPGKEREGVSYISSSGMITDYADSVKGRVTISRDDAKSTMYLQMNSLKPEDTAVYYCAARFPRPRSWLSTDSYNYWGQGAQVTVSS | 44.2 nM | 53 nM | 51.1 nM | ~0.02 mg/L | 0.095 nM | 6.32e-05 s⁻¹ | 668000 M⁻¹ s⁻¹ | 23 nM | –
2 | Net_83 (VHH) VHH: QVQLVESGGGLVQAGESLRLSCAASGSIRSISFMNWYRQQPGKQRELVAGINQIGNTNYAGSVKGRFTISRDNAKNTVYLQMNSLKPEDTAVYYCNVIVRGTVSPFQFWGQGTQVTVSS | 163 nM | 168 nM | 245 nM | – | 0.213 nM | 0.000248 s⁻¹ | 1.17e+06 M⁻¹ s⁻¹ | 61 nM | ~0.03 mg/L
